Assay results published in paper PMC6469936.

Biological target: Kuenenia stuttgartiensis hydrazine dehydrogenase (Kuenenia stuttgartiensis) (UniProt Q1PW30)
Assay: crystal structure

UniProt Q1PW30, sequence (Q1PW30 33-582): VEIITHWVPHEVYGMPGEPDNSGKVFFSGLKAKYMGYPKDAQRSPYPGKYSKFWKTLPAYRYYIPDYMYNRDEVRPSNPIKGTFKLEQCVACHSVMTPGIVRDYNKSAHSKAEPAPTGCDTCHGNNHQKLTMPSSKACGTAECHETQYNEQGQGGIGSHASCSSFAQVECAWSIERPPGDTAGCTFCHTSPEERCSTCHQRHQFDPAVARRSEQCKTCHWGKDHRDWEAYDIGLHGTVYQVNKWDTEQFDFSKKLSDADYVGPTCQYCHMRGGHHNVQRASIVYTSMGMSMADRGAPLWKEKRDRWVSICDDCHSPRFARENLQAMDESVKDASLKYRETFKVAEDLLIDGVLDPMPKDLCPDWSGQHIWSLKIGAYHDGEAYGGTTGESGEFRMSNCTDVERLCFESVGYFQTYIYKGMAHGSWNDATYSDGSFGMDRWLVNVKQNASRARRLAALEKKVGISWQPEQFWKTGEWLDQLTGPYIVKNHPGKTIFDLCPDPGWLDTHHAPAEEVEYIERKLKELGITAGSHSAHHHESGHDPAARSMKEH

stoichiometry N (copies per assembly of 24 HDH monomers): 12
Substance: Kustc1130, endogenous, co-purified with K. stuttgartiensis HDH (from UniProt Q1PW30 33-582) (natural protein)
